{"source": "patent US20110206660A1", "about": "(Ablynx, published 2011)", "molecules": {"B1": {"name": "Nanobody 237D1 (VHH)", "VHH": "EVQLVESGGGLAQPGGPLRLTCEASGVIYSVNDMGWYRQAPGKQRELVAVITSGGGTNYVDSVKGRFTISGDNRKKTVYLQMNSLKPEDTAVYYCSIYYSSGISTLRSWGQGTQVTVSS", "notes": "Monovalent VHH"}, "B2": {"name": "238D4-20GS-238D4 (VHH)", "chain": "EVQLMESGGGLVQAGGSLRLSCAASGRTFNNYAMGWFRRAPGKEREFVAAITRSGVRSGVSAIYGDSVKDRFTISRDNAKNTLYLQMNSLKPEDTAVYTCAASAIGSGALRRFEYDYSGQGTQVTVSSGGGGSGGGGSGGGGSGGGGSEVQLMESGGGLVQAGGSLRLSCAASGRTFNNYAMGWFRRAPGKEREFVAAITRSGVRSGVSAIYGDSVKDRFTISRDNAKNTLYLQMNSLKPEDTAVYTCAASAIGSGALRRFEYDYSGQGTQVTVSS", "notes": "Bivalent Nanobody, 20-residue GS linker; also called L13"}, "B3": {"name": "Nanobody 237D2 (VHH)", "VHH": "EVQLVESGGGLVQPGGSLRLSCAASGFTFDDYAMSWVRQAPGKGLEWVSAISWNGGSTDYADSVKGRFTISRDNAKNTLYLQMNSLKSEDTAEYYCARDQGPFYSGTYYYTRQYGYRGQGTQVTVSS", "notes": "Monovalent VHH; also called 237B6, A5, D2, D3, E4, F4, G2, G4, xH5, 237F1, C5, G1"}, "B4": {"name": "Nanobody 238C5 (VHH)", "VHH": "EVQLMESGGGLVQAGGSLRLACAASGFTFEDYAIGWFRKAPGKEREGVSCISGSDGSTTYADSVKGRFTISTDNAKNTVYLEMNSLKPEDTAVYYCAQQYGVGGRVVCPGPYEYDVWGQGTQVTVSS", "notes": "Monovalent VHH; also called 238C5, G2, xH5, 238C3, D6, E6"}, "B5": {"name": "Nanobody 238D4 (VHH)", "VHH": "EVQLMESGGGLVQAGGSLRLSCAASGRTFNNYAMGWFRRAPGKEREFVAAITRSGVRSGVSAIYGDSVKDRFTISRDNAKNTLYLQMNSLKPEDTAVYTCAASAIGSGALRRFEYDYSGQGTQVTVSS", "notes": "Monovalent llama VHH; also called 238G3; 238D4, G3"}, "B6": {"name": "Nanobody 237G7 (VHH)", "VHH": "EVQLVESGGGLVQPGGSLRLSCAASSFIGNYHAIVWLRQAPGKELEGVSCITSRDSITYYASFVKGRFTISRDDAKNTVYLQMNNLKPEDTAVYYCAVBTSMTCPTLIVRFNYRGQGTQVTVSS", "notes": "Monovalent VHH"}, "B7": {"name": "238D2-20GS-238D4 (VHH)", "chain": "EVQLVESGGGLVQTGGSLRLSCAASGFTFSSYAMSWVRQAPGKGLEWVSGIKSSGDSTRYAGSVKGRFTISRDNAKNMLYLQMYSLKPEDTAVYYCAKSRVSRTGLYTYDNRGQGTQVTVSSGGGGSGGGGSGGGGSGGGGSEVQLMESGGGLVQAGGSLRLSCAASGRTFNNYAMGWFRRAPGKEREFVAAITRSGVRSGVSAIYGDSVKDRFTISRDNAKNTLYLQMNSLKPEDTAVYTCAASAIGSGALRRFEYDYSGQGTQVTVSS"}, "B8": {"name": "238D2-15GS-238D4 (VHH)", "chain": "EVQLVESGGGLVQTGGSLRLSCAASGFTFSSYAMSWVRQAPGKGLEWVSGIKSSGDSTRYAGSVKGRFTISRDNAKNMLYLQMYSLKPEDTAVYYCAKSRVSRTGLYTYDNRGQGTQVTVSSGGGGSGGGGSGGGGSEVQLMESGGGLVQAGGSLRLSCAASGRTFNNYAMGWFRRAPGKEREFVAAITRSGVRSGVSAIYGDSVKDRFTISRDNAKNTLYLQMNSLKPEDTAVYTCAASAIGSGALRRFEYDYSGQGTQVTVSS"}, "B9": {"name": "Nanobody 238D2 (VHH)", "VHH": "EVQLVESGGGLVQTGGSLRLSCAASGFTFSSYAMSWVRQAPGKGLEWVSGIKSSGDSTRYAGSVKGRFTISRDNAKNMLYLQMYSLKPEDTAVYYCAKSRVSRTGLYTYDNRGQGTQVTVSS", "notes": "Monovalent llama VHH; Tested as phage, as periplasm fraction and purified; also called 238C1; 238C1, D2"}, "B10": {"name": "Nanobody 237A6 (VHH)", "VHH": "EVQLVESGGGLVQAGGSLRLSCAASGSIFSLNAMGWYRQAPGKQRELVAGITSSTSTYYADSVKGRFTISRDNTKNTVYLQMNSLKPEDTAVYYCNVDCPDYYSDYECPLEDRGQGTQVTVSS", "notes": "Monovalent VHH"}}, "key": {"human CXCR4 [1]": {"target": "T1, human CXCR4 (human, UniProt P61073-2 2-356)", "T1 sequence (P61073 other isoform, or with tags, fused parts or gaps)": "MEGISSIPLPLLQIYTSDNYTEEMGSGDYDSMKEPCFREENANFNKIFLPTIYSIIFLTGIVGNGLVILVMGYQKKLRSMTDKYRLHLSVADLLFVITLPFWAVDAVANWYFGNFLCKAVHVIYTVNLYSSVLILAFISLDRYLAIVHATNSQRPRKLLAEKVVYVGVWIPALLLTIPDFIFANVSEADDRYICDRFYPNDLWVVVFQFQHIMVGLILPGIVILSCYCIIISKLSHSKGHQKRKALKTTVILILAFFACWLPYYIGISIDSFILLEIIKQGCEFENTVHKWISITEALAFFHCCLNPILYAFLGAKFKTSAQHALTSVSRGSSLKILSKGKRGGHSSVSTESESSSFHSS", "test": "competition binding vs [125I]-238D4, HEK293T-CXCR4 membranes"}, "human CXCR4 [2]": {"target": "T1, human CXCR4", "test": "competition binding vs [125I]-238D2, HEK293T-CXCR4 membranes"}, "human CXCR4 [3]": {"target": "T1, human CXCR4", "test": "competition binding vs [125I]-CXCL12, HEK293T-CXCR4 membranes"}, "human CXCR4 [4]": {"target": "T1, human CXCR4", "test": "competition binding vs [125I]-CXCL12, HEK293T-CXCR4 membranes; purified Nanobody up to 0.5 µM, tracer [125I]-CXCL12"}, "human CXCR4 [5]": {"target": "T1, human CXCR4", "test": "competition binding vs [125I]-238D2, HEK293T-CXCR4 membranes; purified Nanobody up to 0.5 µM, tracer [125I]-238D2"}, "human CXCR4 [6]": {"target": "T1, human CXCR4", "test": "competition binding vs [125I]-238D4, HEK293T-CXCR4 membranes; purified Nanobody up to 0.5 µM, tracer [125I]-238D4"}, "human CXCR4 [7]": {"target": "T1, human CXCR4", "test": "periplasm fraction (1:10), inhibition of [125I]-CXCL12 binding, HEK293T-CXCR4 membranes; - = 0-29%, + = 30-69%, ++ = 70-100%; periplasma fraction in the clone screen, tracer [125I]-CXCL12; 30-69% inhibition"}, "human CXCR4 [8]": {"target": "T1, human CXCR4", "test": "competition binding vs [125I]-CXCL12, HEK293T-CXCR4 membranes"}, "human CXCR4 [9]": {"target": "T1, human CXCR4", "test": "competition binding vs [125I]-CXCL12, HEK293T-CXCR4 membranes", "remark": "listed apart in the source"}, "CXCR3 [10]": {"target": "T2, CXCR3 (UniProt P49682 1-368)", "T2 construct": "whole, on cells; also called chemokine receptor CXCR3", "T2 sequence (looked up)": "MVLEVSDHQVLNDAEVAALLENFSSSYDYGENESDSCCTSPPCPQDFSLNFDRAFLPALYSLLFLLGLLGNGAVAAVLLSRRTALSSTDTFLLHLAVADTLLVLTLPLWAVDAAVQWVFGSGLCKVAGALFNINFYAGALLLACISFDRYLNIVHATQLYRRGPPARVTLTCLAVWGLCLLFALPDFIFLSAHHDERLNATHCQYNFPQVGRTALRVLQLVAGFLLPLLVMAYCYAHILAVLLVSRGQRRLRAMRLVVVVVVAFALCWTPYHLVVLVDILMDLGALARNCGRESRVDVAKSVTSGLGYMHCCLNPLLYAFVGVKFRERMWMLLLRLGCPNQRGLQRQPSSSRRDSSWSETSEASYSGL", "test": "total binding of [125I]-238D4 to membranes of HEK293T cells expressing CXCR4 or CXCR3, without (-) and with 3 µM AMD3100"}, "human CXCR4 [11]": {"target": "T1, human CXCR4", "test": "cell-based or functional assay"}, "human CXCR4 [12]": {"target": "T1, human CXCR4", "test": "competition with [125I]-238D4, membranes of HEK293T cells expressing CXCR4"}, "human CXCR4 [13]": {"target": "T1, human CXCR4", "test": "cell-based or functional assay", "remark": "listed apart in the source"}, "[14]": {"target": "constitutively active CXCR4 mutant N119A (UniProt P61073 1-352)", "sequence (P61073 whole entry N119A)": "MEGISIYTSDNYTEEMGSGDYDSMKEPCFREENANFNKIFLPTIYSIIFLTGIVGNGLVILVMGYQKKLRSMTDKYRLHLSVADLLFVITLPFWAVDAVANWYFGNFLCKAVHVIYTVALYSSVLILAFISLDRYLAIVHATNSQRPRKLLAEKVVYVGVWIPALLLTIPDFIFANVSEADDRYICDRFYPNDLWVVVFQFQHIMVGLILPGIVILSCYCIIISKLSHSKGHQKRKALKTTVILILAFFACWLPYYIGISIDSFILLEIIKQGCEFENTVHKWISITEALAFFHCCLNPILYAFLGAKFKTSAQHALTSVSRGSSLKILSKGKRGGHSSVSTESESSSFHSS", "test": "cell-based or functional assay"}, "human CXCR4 [15]": {"target": "T1, human CXCR4", "test": "competition with [125I]-CXCL12, membranes of HEK293T cells expressing CXCR4"}, "human CXCR4 [16]": {"target": "T1, human CXCR4", "test": "competition with [125I]-238D2, membranes of HEK293T cells expressing CXCR4"}, "CXCR3 [17]": {"target": "T2, CXCR3", "test": "total binding of [125I]-238D2 to membranes of HEK293T cells expressing CXCR4 or CXCR3, without (-) and with 3 µM AMD3100"}}}
{"molecule": "monoclonal antibody 12G5", "values": [{"measurement": "maximal displacement", "setting": "human CXCR4 [1]", "value": 90, "unit": "%"}, {"measurement": "pKi", "setting": "human CXCR4 [1]", "value": 9.31}, {"measurement": "maximal displacement", "setting": "human CXCR4 [2]", "value": 89, "unit": "%"}, {"measurement": "pKi", "setting": "human CXCR4 [2]", "value": 9.65}, {"measurement": "maximal displacement", "setting": "human CXCR4 [3]", "value": 54, "unit": "%"}, {"measurement": "pKi", "setting": "human CXCR4 [3]", "value": 9.19}]}
{"molecule": "B1", "values": [{"measurement": "pKi", "setting": "human CXCR4 [4]", "value": "< 6.3"}, {"measurement": "pKi", "setting": "human CXCR4 [5]", "value": "< 6.3"}, {"measurement": "pKi", "setting": "human CXCR4 [6]", "value": "< 6.3"}, {"measurement": "percent inhibition of specific [125I]-CXCL12 binding", "setting": "human CXCR4 [7]", "value": "30 to 69", "unit": "%"}]}
{"molecule": "B2", "values": [{"measurement": "Rel. potency (relative to monovalent 238D4)", "setting": "human CXCR4 [8]", "value": 4.4, "unit": "fold"}, {"measurement": "pKi", "setting": "human CXCR4 [8]", "value": 8.85}]}
{"molecule": "B3", "values": [{"measurement": "pKi", "setting": "human CXCR4 [4]", "value": "< 6.3"}, {"measurement": "pKi", "setting": "human CXCR4 [5]", "value": "< 6.3"}, {"measurement": "pKi", "setting": "human CXCR4 [6]", "value": "< 6.3"}]}
{"molecule": "B4", "values": [{"measurement": "pKi", "setting": "human CXCR4 [1]", "value": "< 7"}, {"measurement": "pKi", "setting": "human CXCR4 [2]", "value": "< 7"}, {"measurement": "maximal displacement", "setting": "human CXCR4 [9]", "value": 0, "unit": "%"}, {"measurement": "pKi", "setting": "human CXCR4 [9]", "value": "< 6.3"}]}
{"molecule": "B5", "values": [{"measurement": "binding result", "setting": "CXCR3 [10]", "value": "no binding (tested: 3 nM)"}, {"measurement": "CRE activation, HEK293T-CXCR4-CREbgal/0.01-100 nM CXCL12: pKi or pIC50 (pKB from the Schild plot by the text)", "setting": "human CXCR4 [11]", "value": 7.7}, {"measurement": "Chemotaxis, Jurkat/0.3 nM CXCL12: pKi or pIC50", "setting": "human CXCR4 [11]", "value": 8.31}, {"measurement": "IP accumulation, HEK293T-CXCR4-Gαqi5/30 nM CXCL12: pKi or pIC50", "setting": "human CXCR4 [11]", "value": 8.39}, {"measurement": "pKi", "setting": "human CXCR4 [1]", "value": 8.55}, {"measurement": "pKi", "setting": "human CXCR4 [2]", "value": 8.8}, {"measurement": "IC50 (read off the curve)", "setting": "human CXCR4 [12]", "value": "~4", "unit": "nM"}, {"measurement": "migration of Jurkat cells towards 0.3 nM CXCL12 (ChemoTx): IC50 (read off the curve)", "setting": "human CXCR4 [13]", "value": "~8", "unit": "nM"}, {"measurement": "reduction of the constitutively increased basal inositol phosphate accumulation, HEK293T-CXCR4 (N119A)", "setting": "[14]", "value": 49, "unit": "%"}, {"measurement": "IC50 (read off the curve)", "setting": "human CXCR4 [15]", "value": "~10", "unit": "nM"}, {"measurement": "IC50 (read off the curve)", "setting": "human CXCR4 [16]", "value": "~3", "unit": "nM"}, {"measurement": "maximal displacement", "setting": "human CXCR4 [9]", "value": 99, "unit": "%"}, {"measurement": "pKi", "setting": "human CXCR4 [9]", "value": 8.22}]}
{"molecule": "B6", "values": [{"measurement": "pKi", "setting": "human CXCR4 [4]", "value": "< 6.3"}, {"measurement": "pKi", "setting": "human CXCR4 [5]", "value": "< 6.3"}, {"measurement": "pKi", "setting": "human CXCR4 [6]", "value": "< 6.3"}, {"measurement": "percent inhibition of specific [125I]-CXCL12 binding", "setting": "human CXCR4 [7]", "value": "30 to 69", "unit": "%"}]}
{"molecule": "B7", "values": [{"measurement": "reduction of the constitutively increased basal inositol phosphate accumulation, HEK293T-CXCR4 (N119A)", "setting": "[14]", "value": 65, "unit": "%"}]}
{"molecule": "B8", "values": [{"measurement": "reduction of the constitutively increased basal inositol phosphate accumulation, HEK293T-CXCR4 (N119A)", "setting": "[14]", "value": 64, "unit": "%"}]}
{"molecule": "B9", "values": [{"measurement": "binding result", "setting": "CXCR3 [17]", "value": "no binding (tested: 3 nM)"}]}
{"molecule": "B10", "values": [{"measurement": "pKi", "setting": "human CXCR4 [4]", "value": "< 6.3"}, {"measurement": "pKi", "setting": "human CXCR4 [5]", "value": "< 6.3"}, {"measurement": "pKi", "setting": "human CXCR4 [6]", "value": "< 6.3"}, {"measurement": "percent inhibition of specific [125I]-CXCL12 binding", "setting": "human CXCR4 [7]", "value": "30 to 69", "unit": "%"}]}
